Settings in all cases: tags: C-terminal GS linker-SV40 NLS
Data set [1] has as its target T1, Int8 (Staphylococcus haemolyticus JCSC1435).
T1 chain: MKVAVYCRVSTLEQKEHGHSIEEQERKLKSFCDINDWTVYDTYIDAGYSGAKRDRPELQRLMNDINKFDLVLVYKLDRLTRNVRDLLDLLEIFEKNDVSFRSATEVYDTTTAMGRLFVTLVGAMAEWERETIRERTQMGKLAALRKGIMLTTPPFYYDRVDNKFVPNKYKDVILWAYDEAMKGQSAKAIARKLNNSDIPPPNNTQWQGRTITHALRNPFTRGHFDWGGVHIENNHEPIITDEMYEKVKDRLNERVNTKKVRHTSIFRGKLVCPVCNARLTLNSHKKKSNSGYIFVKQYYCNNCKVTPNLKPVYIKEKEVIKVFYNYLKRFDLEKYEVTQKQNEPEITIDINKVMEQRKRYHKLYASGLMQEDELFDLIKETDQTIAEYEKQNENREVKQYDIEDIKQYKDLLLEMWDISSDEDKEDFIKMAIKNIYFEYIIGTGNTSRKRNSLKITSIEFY
Nature of the data set: cell_activity; attB x attP EGFP inversion reporter, HEK293FT.

Data set [2] addresses T2, Int2 (Streptomyces scabiei 87.22).
T2 chain: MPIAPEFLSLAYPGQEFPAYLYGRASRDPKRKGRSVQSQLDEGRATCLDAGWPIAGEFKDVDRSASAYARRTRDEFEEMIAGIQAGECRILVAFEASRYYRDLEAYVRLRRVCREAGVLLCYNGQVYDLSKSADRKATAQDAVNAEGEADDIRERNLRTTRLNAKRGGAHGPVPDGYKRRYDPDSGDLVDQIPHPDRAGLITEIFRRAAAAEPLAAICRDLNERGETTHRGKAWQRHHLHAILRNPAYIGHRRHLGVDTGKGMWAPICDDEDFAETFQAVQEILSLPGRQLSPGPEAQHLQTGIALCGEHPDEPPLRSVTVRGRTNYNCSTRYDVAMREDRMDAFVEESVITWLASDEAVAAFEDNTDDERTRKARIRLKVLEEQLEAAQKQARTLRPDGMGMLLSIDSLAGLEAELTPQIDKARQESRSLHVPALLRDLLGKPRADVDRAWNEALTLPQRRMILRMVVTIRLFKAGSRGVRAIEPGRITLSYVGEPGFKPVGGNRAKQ
The data set is described as above.

Data set [3] concerns the target T3, Int10 (Streptococcus pneumoniae 670-6B).
T3 chain: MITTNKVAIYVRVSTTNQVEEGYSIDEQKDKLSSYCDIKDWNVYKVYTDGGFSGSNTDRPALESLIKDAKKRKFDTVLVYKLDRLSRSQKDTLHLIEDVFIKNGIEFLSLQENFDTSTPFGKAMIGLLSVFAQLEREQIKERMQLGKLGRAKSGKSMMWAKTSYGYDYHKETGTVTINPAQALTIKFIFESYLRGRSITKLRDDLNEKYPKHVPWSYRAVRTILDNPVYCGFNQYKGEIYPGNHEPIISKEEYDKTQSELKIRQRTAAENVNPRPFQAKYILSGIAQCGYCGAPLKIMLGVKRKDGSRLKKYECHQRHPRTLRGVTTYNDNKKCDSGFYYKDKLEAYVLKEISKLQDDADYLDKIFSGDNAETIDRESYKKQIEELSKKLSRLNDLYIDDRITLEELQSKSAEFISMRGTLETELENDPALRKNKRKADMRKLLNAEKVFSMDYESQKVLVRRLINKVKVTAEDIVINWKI
Nature of the data set: cell_activity.

Data set [4] concerns the target Int11 (Clostridium botulinum B str. Eklund 17B). As to the kind of experiment: cell_activity; attB x attP EGFP inversion reporter, HEK293FT.
For data set [5], the target named is T4, Int12 (Staphylococcus lugdunensis N920143).
T4 chain: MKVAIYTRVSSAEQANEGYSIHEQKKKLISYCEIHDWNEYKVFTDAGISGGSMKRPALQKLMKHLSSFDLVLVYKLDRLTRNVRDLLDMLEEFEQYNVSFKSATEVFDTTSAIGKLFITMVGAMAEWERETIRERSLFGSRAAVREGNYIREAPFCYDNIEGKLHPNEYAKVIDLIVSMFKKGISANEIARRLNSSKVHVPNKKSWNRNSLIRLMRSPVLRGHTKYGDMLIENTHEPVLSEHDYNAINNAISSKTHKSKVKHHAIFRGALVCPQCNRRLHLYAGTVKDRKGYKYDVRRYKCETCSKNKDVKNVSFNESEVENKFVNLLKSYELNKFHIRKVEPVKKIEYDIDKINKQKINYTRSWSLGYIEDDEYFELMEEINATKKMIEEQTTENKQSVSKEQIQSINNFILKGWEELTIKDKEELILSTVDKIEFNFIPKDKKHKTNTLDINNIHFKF
Described as above.

Data set [6] deals with T5, Int9 (Staphylococcus aureus str. Newman).
T5 chain: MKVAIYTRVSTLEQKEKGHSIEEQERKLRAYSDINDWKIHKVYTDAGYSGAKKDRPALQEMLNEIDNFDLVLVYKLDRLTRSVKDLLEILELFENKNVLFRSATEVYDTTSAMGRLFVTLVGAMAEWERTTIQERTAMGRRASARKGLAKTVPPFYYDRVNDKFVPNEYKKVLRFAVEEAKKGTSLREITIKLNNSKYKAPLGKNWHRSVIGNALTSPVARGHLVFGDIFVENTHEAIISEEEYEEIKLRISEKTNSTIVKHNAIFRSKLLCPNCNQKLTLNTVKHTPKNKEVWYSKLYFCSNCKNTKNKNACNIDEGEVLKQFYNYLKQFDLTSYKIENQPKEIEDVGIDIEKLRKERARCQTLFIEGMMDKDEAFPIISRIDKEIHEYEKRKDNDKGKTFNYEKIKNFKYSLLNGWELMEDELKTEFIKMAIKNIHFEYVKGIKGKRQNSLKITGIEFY
Nature of the data set: cell_activity.

The target of data set [7] is T6, Int3 (Streptococcus pyogenes M1 GAS (phage …)).
T6 chain: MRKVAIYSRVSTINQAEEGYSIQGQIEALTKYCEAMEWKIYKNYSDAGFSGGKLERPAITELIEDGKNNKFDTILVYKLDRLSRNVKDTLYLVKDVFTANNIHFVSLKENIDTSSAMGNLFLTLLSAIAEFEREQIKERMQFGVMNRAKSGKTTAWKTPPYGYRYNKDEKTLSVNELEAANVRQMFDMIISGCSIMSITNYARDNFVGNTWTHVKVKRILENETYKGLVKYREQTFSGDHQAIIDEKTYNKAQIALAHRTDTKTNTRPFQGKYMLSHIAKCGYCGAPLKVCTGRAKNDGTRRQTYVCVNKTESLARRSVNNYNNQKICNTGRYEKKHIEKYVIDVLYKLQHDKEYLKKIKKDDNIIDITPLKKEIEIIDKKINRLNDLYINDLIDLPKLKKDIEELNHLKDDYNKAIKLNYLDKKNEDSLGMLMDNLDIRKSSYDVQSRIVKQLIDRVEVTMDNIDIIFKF
Nature of the data set: cell_activity.

B1: Int8 attB (dsDNA)
DNA 1: CAATCATCAGATAACTATGGCGGCACGTGCATTAACCACGGTTGTATCCCGTCTAAAGTACTCGT
DNA 2: ACGAGTACTTTAGACGGGATACAACCGTGGTTAATGCACGTGCCGCCATAGTTATCTGATGATTG
With B1, the binding signal in data set [1] was 0.068 fraction of Bxb1.

B2: Int2 attB (dsDNA)
DNA 1: GGACGGCGCAGAAGGGGAGTAGCTCTTCGCCGGACCGTCGACATACTGCTCAGCTCGTC
DNA 2: GACGAGCTGAGCAGTATGTCGACGGTCCGGCGAAGAGCTACTCCCCTTCTGCGCCGTCC
Regarding B2, in data set [2], the binding signal is 0.17 fraction of Bxb1.

B3: Int10 attB (dsDNA)
DNA 1: AGCACGCTGATAATCAGCAAGACCACCAACATTTCCACCAATGTAAAAGCTTTAACCTTAGC
DNA 2: GCTAAGGTTAAAGCTTTTACATTGGTGGAAATGTTGGTGGTCTTGCTGATTATCAGCGTGCT
Turning to B3, the binding signal in data set [3] is 5.49 fraction of Bxb1.

B4: Int11 attP (dsDNA)
DNA 1: GTTTATATGTTTACTAATAAGACGCTCTCAACCCATAAAGTCTTATTAGTAAACATATTTCAACT
DNA 2: AGTTGAAATATGTTTACTAATAAGACTTTATGGGTTGAGAGCGTCTTATTAGTAAACATATAAAC
In the case of B4, in data set [4], the binding signal is 1.81 fraction of Bxb1.

B5: Int12 attB (dsDNA)
DNA 1: GTTCGTGGTAACTATGGGTGGTACAGGTGCCACATTAGTTGTACCATTTATGTTTATGTGGTTAAC
DNA 2: GTTAACCACATAAACATAAATGGTACAACTAATGTGGCACCTGTACCACCCATAGTTACCACGAAC
B5: the binding signal in data set [5] is 0.821 fraction of Bxb1.

B6: Int12 attP (dsDNA)
DNA 1: TTTTTGTATGTTAGTTGTGTCACTGGGTAGACCTAAATAGTGACACAACTGCTATTAAAATTTAA
DNA 2: TTAAATTTTAATAGCAGTTGTGTCACTATTTAGGTCTACCCAGTGACACAACTAACATACAAAAA
In the case of B6, the binding signal in data set [5] was 0.821 fraction of Bxb1.

B7: Int8 attP (dsDNA)
DNA 1: TTAATAAACTATGGAAGTATGTACAGTCTTGCAATGTTGAGTGAACAAACTTCCATAATAAAAT
DNA 2: ATTTTATTATGGAAGTTTGTTCACTCAACATTGCAAGACTGTACATACTTCCATAGTTTATTAA
B7: the binding signal in data set [1] was 0.068 fraction of Bxb1.

B8: Int9 attP (dsDNA)
DNA 1: GTGGTTGTTTTTGTTGGAAGTGTGTATCAGGTATCTGCATAGTTATTCCGAACTTCCAATTA
DNA 2: TAATTGGAAGTTCGGAATAACTATGCAGATACCTGATACACACTTCCAACAAAAACAACCAC
For B8, the binding signal in data set [6] is 0.08 fraction of Bxb1.

B9: Int11 attB (dsDNA)
DNA 1: ATGGATTTTGCAGATTCCCAGATGCCCCTACAGAAAGAGGTACAAAACATTTATTGGAATTAATT
DNA 2: AATTAATTCCAATAAATGTTTTGTACCTCTTTCTGTAGGGGCATCTGGGAATCTGCAAAATCCAT
For B9, the binding signal in data set [4] is 1.81 fraction of Bxb1.

B10: Int2 attP (dsDNA)
DNA 1: GCTCATGTATGTGTCTACGCGAGATTCTCGCCCGAGAACTTCTGCAAGGCACTGCTCTTGGCT
DNA 2: AGCCAAGAGCAGTGCCTTGCAGAAGTTCTCGGGCGAGAATCTCGCGTAGACACATACATGAGC
With B10, in data set [2], the binding signal is 0.17 fraction of Bxb1.

B11: Int10 attP (dsDNA)
DNA 1: GGAAAATATAAATAATTTTAGTAACCTACATCTCAATCAAGGATAGTAAAACTCTCACTCTT
DNA 2: AAGAGTGAGAGTTTTACTATCCTTGATTGAGATGTAGGTTACTAAAATTATTTATATTTTCC
B11: the binding signal in data set [3] was 5.49 fraction of Bxb1.

B12: Int9 attB (dsDNA)
DNA 1: TTTATATTGCGAAAAATAATTGGCGAACGAGGTAACTGGATACCTCATCCGCCAATTAAAATTTG
DNA 2: CAAATTTTAATTGGCGGATGAGGTATCCAGTTACCTCGTTCGCCAATTATTTTTCGCAATATAAA
Take B12: the binding signal in data set [6] is 0.08 fraction of Bxb1.

B13: Int3 attB (dsDNA)
DNA 1: GTTTGTAAAGGAGACTGATAATGGCATGTACAACTATACTCGTCGGTAAAAAGGCATCTTAT
DNA 2: ATAAGATGCCTTTTTACCGACGAGTATAGTTGTACATGCCATTATCAGTCTCCTTTACAAAC
Regarding B13, the binding signal in data set [7] is 1.11 fraction of Bxb1.

B14: Int3 attP (dsDNA)
DNA 1: ATGGATAAAAAAATACAGCGTTTTTCATGTACAACTATACTAGTTGTAGTGCCTAAATAATGCTT
DNA 2: AAGCATTATTTAGGCACTACAACTAGTATAGTTGTACATGAAAAACGCTGTATTTTTTTATCCAT
As for B14, the binding signal in data set [7] is 1.11 fraction of Bxb1.

These data come from patent publication US20240409906, “INTEGRASES, LANDING PAD ARCHITECTURES, AND ENGINEERED CELLS COMPRISING THE SAME” (Asimov Inc., published 2024).
